The target in assay [1] is Env glycoprotein (gp160) of HIV-1 NL4-3, wild type (HIV-1 NL4-3 (clade B), UniProt Q6BC06, strain). The experiment in a line: cell-based or functional assay.
The target of assay [2] is T1, JRFL rgp120 (HIV-1 JRFL (clade B), UniProt Q75760, strain). Put plainly: cell-based or functional assay.
A further assay has as its target T2, CN54 rgp120 (HIV-1 isolate CN54 (97CN54), CRF07_BC, UniProt Q994N8, strain).
T2 construct: gp120, the surface subunit of the Env glycoprotein, HIV-1 isolate CN54 (CRF07_BC); recombinant; also called CRF07_BC (CN54)-derived rgp120; CN54 gp120; source: bought: Immune Technology Corp or Enzyme LLC
Put plainly: SPR; BIACORE T200; rgp120 immobilised on CM5 chip by amine coupling (20 μg/ml); antibody in two-fold dilutions injected at 30 μl/min for 3 min; 1:1 Langmuir model, global fit. Conditions: both partners purified. Background: Surface plasmon resonance follows binding to a sensor surface in real time, without labels.

Assay [3] concerns the target T1, JRFL rgp120. The assay is described as above. The settings on record: both partners purified.
A further assay addresses T3, rgp120 (R2) (HIV-1 R2).
T3 construct: gp120, the surface subunit of the Env glycoprotein, HIV-1 isolate R2; recombinant; also called native rgp120; coated rgp120; source: bought: Immune Technology Corp or Enzyme LLC
The experiment in a line: ELISA; direct ELISA; 1 μg/ml rgp120 or rgp140 coated in 0.1 M carbonate buffer pH 9.6, 4°C overnight; antibody 1 h at 37°C; detected with HRP goat anti-human IgG. The settings on record: both partners purified.

B1: Y498 IgG1 (antibody, V domains shown)
VH: KVQLVQSGTELKKPGASGKVSCKASGYTFNSNGLNWVRQAPGQGLEWVGWISGHSDETKHAQNFQGRLTLTTDTSTNTAYMELRSLRSDDTAVYYCARSLLRSLERLMGGTDAFDIWGQGTLVTVSS
VL: not shown
notes: as the VH of m1; as the VL of m1; Full-length IgG1, kappa light chain, made by recloning the Fab chains in the pDR12 vector; also called whole Y498 IgG1; source: 293T, transient transfection, purified from the culture medium (protein A/G sepharose)
In the case of B1, in assay [1], the “neutralisation of the pseudovirus with NL4-3 Env, single cycle infection of TZM-bl cells, IC50” value was 0.61 µg/mL. Further, the “neutralisation of the pseudovirus with JRFL Env (Env on the virus, not the rgp120), single cycle infection of TZM-bl cells, IC50” value with JRFL rgp120 [2] was over 50 µg/mL. Moreover, the values for the equilibrium dissociation constant (Kd) in the assay with CN54 rgp120 and with JRFL rgp120 [3] were 0.46 nM and 0.86 nM, respectively. Besides, the binding result with rgp120 (R2) is “binds”.

For orientation: Kd means the equilibrium constant for the complex coming apart. A lower Kd goes with a tighter complex.

For the origin of these results see article PMC5609902 (Oncotarget, 2017).
